± gives the standard error. For part of these data: This sample holds only a part of the variants without activity.
B1: glmS ribozyme (parent)
chain: AUAAAAGCGCCAGAACUACAGAAAUGUAGUUGACGAGGAGGAGGUUUAUCGAAUUUUCGGCGGAUGCCUCCAAA

Legend:
Conditions in all cases: with glucosamine-6-phosphate
glucosamine-6-phosphate [1] = variants of: B1; test: kcat; higher = faster cleavage; RNA array
How it was run: (§1)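 Glucosamine-6-phosphate (40 μM to 10 mM) in HEPES/KCl/Mg(OAc)2 buffer was flowed over sequenced MiSeq chips, and tiles were imaged over ~14 h. Barcoded ribozyme variants there had been transcribed in situ by E. coli RNA polymerase and were tracked through a hybridised Cy3 probe at 37 °C. One- or two-exponential decay fits to per-tile medians, normalised to baseline and to non-cleaving reference variants, gave kobs. kcat and KM came from weighted Michaelis–Menten fits across concentrations.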

glucosamine-6-phosphate [2] = variants of: B1; test: self-cleavage kobs at 160 uM GlcN6P; higher = faster cleavage; RNA array
How it was run: as §1

glucosamine-6-phosphate [3] = variants of: B1; test: self-cleavage kobs at 640 uM GlcN6P; higher = faster cleavage; RNA array
How it was run: as §1

glucosamine-6-phosphate [4] = variants of: B1; test: self-cleavage kobs at 2500 uM GlcN6P; higher = faster cleavage; RNA array
How it was run: as §1

glucosamine-6-phosphate [5] = variants of: B1; test: self-cleavage kobs at 10000 uM GlcN6P; higher = faster cleavage; RNA array
How it was run: as §1

glucosamine-6-phosphate [6] = variants of: B1; test: self-cleavage kobs at 40 uM GlcN6P; higher = faster cleavage; RNA array
How it was run: as §1

glucosamine-6-phosphate [7] = variants of: B1; test: KM; higher = weaker cofactor use; RNA array
How it was run: as §1

Variant | kcat (glucosamine-6-phosphate [1]) [s⁻¹] | self-cleavage kobs at 160 uM GlcN6P (glucosamine-6-phosphate [2]) [s⁻¹] | self-cleavage kobs at 640 uM GlcN6P (glucosamine-6-phosphate [3]) [s⁻¹] | self-cleavage kobs at 2500 uM GlcN6P (glucosamine-6-phosphate [4]) [s⁻¹] | self-cleavage kobs at 10000 uM GlcN6P (glucosamine-6-phosphate [5]) [s⁻¹] | self-cleavage kobs at 40 uM GlcN6P (glucosamine-6-phosphate [6]) [s⁻¹] | KM (glucosamine-6-phosphate [7]) [µM]
A15C G32A U55A | 0.00195 ± 0.00087 | 7.61e-05 ± 2.3e-05 | 0.000233 ± 5.6e-05 | 0.000416 ± 0.00012 | 0.00137 ± 0.00022 | – | –
C16G U55C | 0.00146 ± 0.00056 | 0.000158 ± 7.7e-05 | 0.000574 ± 8.2e-05 | 0.000702 ± 0.00013 | 0.00213 ± 0.00033 | 4.65e-05 ± 1.3e-05 | –
A14U U45G C68U | 0.000104 ± 5.1e-06 | – | 4.96e-05 ± 1.7e-05 | 7.43e-05 ± 2.3e-05 | 9.78e-05 ± 1.7e-05 | – | 786 ± 160
C34A U46G | < 1e-05 | – | < 1e-05 | < 1e-05 | < 1e-05 | < 1e-05 | –
A12U G41C | 0.000373 ± 8.7e-05 | 2.68e-05 ± 1.1e-05 | 0.000108 ± 1.2e-05 | 0.000168 ± 2.7e-05 | 0.000373 ± 5e-05 | – | 1830 ± 770
G13C C16A | 0.000101 ± 1.7e-06 | – | 4.82e-05 ± 1.7e-05 | 7.81e-05 ± 1.4e-05 | 9.42e-05 ± 1.4e-05 | – | 712 ± 55
C10U G29A | < 1e-05 | – | – | – | < 1e-05 | < 1e-05 | –
G9A G37C | < 1e-05 | – | – | – | – | < 1e-05 | –
U31G A39U | 0.0136 ± 0.0028 | 0.000492 ± 7.3e-05 | 0.00183 ± 0.00041 | 0.00485 ± 0.00084 | 0.0106 ± 0.0011 | 0.000179 ± 1.6e-05 | 3520 ± 930
G29U G59A | 1.03e-05 ± 3.2e-06 | – | – | – | – | < 1e-05 | –
A39C G40C | 0.000145 ± 1.6e-06 | – | 4.2e-05 ± 9e-06 | 8.75e-05 ± 1.8e-05 | 0.000126 ± 1.5e-05 | – | 1590 ± 47
C67U C71U | 0.00245 ± 0.0012 | 0.000128 ± 1.6e-05 | 0.000403 ± 3.1e-05 | 0.00121 ± 0.00026 | 0.00213 ± 0.00029 | 6.24e-05 ± 6.8e-06 | –
C11G A15G | 1.01e-05 ± 1.4e-06 | – | < 1e-05 | – | – | – | –
A39G U56A U57G G60U C67U C70U | 1.31e-05 ± 5.3e-06 | – | – | – | – | – | –
C10U A52U C68G | 0.000101 ± 4.6e-05 | – | – | 6.27e-05 ± 2.5e-05 | – | – | –
U31A G37C | 3.35e-05 ± 2.7e-06 | – | – | – | – | – | 1840 ± 580
U30C C58G | 2e-05 ± 1.6e-06 | – | < 1e-05 | – | – | – | –
U47G C67G | 0.000689 ± 0.00022 | 0.000105 ± 1.9e-05 | 0.000248 ± 2.3e-05 | 0.000429 ± 5.2e-05 | 0.000816 ± 9.6e-05 | 7.66e-05 ± 1.4e-05 | –

— the supplement of paper PMC7125110
